Earlier results, collected in patent US20250352622A1, “GLP-1 FORMULATIONS AND THEIR USES” (Rose Pharma Inc., priority 2024, published 2025).
Where two headings read alike, the source gives them in different places.

Row | Substance | t1/2 (in vivo) | also measured
1 | tirzepatide | about 5 days | –
2 | lixisenatide | – | half-life (in vivo): about 3 hours
3 | semaglutide | about 1 week | –
4 | dulaglutide | – | t1/2 (longer acting GLP-1 agonist): about 90 hours
